First the molecules themselves.
B2: FMNL1NCC (1–458, Δ172–198) (domain or fragment, human, UniProt O95466 1-458, looked up)
chain: MGNAAGSAEQPAGPAAPPPKQPAPPKQPMPAAGELEERFNRALNCMNLPPDKVQLLSQYDNEKKWELICDQERFQVKNPPAAYIQKLKSYVDTGGVSRKVAADWMSNLGFKRRVQESTQVLRELETSLRTNHIGWVQEFLNEENRGLDVLLEYLAFAQCSVTYDMESTDNGSRHLTIKLTPAHSRKALRNSRIVSQKDDVHVCIMCLRAIMNYQSGFSLVMNHPACVNEIALSLNNKNPRTKALVLELLAAVCLVRGGHDIILAAFDNFKEVCGEQHRFEKLMEYFRNEDSNIDFMVACMQFINIVVHSVENMNFRVFLQYEFTHLGLDLYLERLRLTESDKLQVQIQAYLDNIFDVGALLEDTETKNAVLEHMEELQEQVALLTERLRDAENESMAKIAELEKQLSQARKELETLRERFSESTAMGPSRR
notes: also called FMNL1NCC(Δ172–198); FMNL1 (1–458, Δ172–198); source: E. coli, purified (GSH Sepharose, TEV cleavage, gel filtration); not shown: GST, N-terminal, cleaved

Series [1] has as its target myrFMNL2N (myristoylated FMNL2N, residues 2–379) (human, UniProt Q96PY5 2-379, N-terminal myristoylation (myrFMNL2N)). Kind of series: ITC; Cdc42·GppNHp titrated to myrFMNL2N at liposomes; 25 °C. The settings on record: both partners purified. In general terms: ITC needs no label: the signal is the heat of the interaction.
The target in series [2] is T1, FMNL2N(Δloop) (residues 1–379, Δaa 144–218) (human, UniProt Q96PY5 1-379, Δaa 144–218).
T1 construct: source: E. coli, purified (GSH Sepharose, TEV cleavage, gel filtration); not shown: GST, N-terminal, cleaved
T1 sequence (Q96PY5 other isoform, or with tags, fused parts or gaps Δaa 144–218 | Δaa 144–218 | mutant): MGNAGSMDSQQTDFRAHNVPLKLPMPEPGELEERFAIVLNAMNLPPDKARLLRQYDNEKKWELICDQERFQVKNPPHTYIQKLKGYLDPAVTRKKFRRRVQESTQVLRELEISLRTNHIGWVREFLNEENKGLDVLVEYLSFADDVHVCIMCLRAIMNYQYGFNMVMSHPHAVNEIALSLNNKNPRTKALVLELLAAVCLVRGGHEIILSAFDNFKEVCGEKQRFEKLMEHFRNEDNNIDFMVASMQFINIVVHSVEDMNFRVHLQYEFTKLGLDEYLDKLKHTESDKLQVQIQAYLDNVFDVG
Kind of series: ITC; GppNHp-loaded GTPase at 500 μM injected from the syringe into 50 μM FMNL in the cell; 20 mM Tris/HCl pH 8, 150 mM NaCl, 5 mM MgCl2, 1 mM DTE, 298 K; MicroCal iTC200. The following applies: both partners purified.

The target in series [3] is B2. Kind of series: crystal structure; complexes formed by equimolar mixing of the FMNL fragment with GppNHp-loaded Cdc42 (1–179) in high salt buffer and overnight dialysis at 277 K into 20 mM Tris/HCl pH 8.0, 150 mM NaCl, 5 mM MgCl2, 1 mM DTE; hanging drop vapour diffusion at 293 K. The following applies: both partners purified.
Series [4] deals with the molecule itself. The description is as above.
Series [5] concerns the molecule itself. Kind of series: SEC; size exclusion chromatography of full-length recombinant FMNL1 from insect cells; data not shown.

The record followed here is publication PMC4432619, “The structure of FMNL2–Cdc42 yields insights into the mechanism of lamellipodia and filopodia formation” (Nature Communications, 2015).

myrFMNL2N (myristoylated FMNL2N, residues 2–379), sequence (Q96PY5 2-379): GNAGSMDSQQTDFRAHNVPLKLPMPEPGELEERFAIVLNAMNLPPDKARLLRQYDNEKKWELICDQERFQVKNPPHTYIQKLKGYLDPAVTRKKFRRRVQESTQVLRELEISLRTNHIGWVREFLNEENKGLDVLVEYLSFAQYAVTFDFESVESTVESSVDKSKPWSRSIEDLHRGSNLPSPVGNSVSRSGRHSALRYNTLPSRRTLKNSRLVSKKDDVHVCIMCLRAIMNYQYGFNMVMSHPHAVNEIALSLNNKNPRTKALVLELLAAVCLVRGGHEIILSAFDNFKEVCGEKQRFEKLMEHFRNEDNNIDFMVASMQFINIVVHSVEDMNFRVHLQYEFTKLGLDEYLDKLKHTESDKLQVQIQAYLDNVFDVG

B1: Cdc42 (1–179) (domain or fragment)
chain: not shown
notes: Loaded with the non-hydrolysable GTP analogue GppNHp and Mg2+ in all rows written here; also called Cdc42·GppNHp; active Cdc42; source: E. coli, GST fusion, purified; nucleotide exchanged for GppNHp
Usually Kd stands for the equilibrium constant for the complex coming apart. A low value points to tighter binding. What is called stoichiometry N is the number of molecules, sites or subunits per partner or assembly. Regarding B1, in series [1], the Kd was determined as 1790 ± 760 nM, the dH was -2.77 ± 0.29 kcal/mol and the “stoichiometry N” value came out at 0.93. In series [2], the dissociation constant (Kd) was 1340 ± 170 nM, the dH was -2.39 ± 0.04 kcal/mol and the “stoichiometry N” value turned out to be 1. Moreover, in series [3], the binding result is given as “binds”.
Turning to B2, the binding result in series [4] is “binds”.

B3: Full-length, recombinant FMNL1 protein (natural protein, human, UniProt O95466 1-1100, looked up)
chain: MGNAAGSAEQPAGPAAPPPKQPAPPKQPMPAAGELEERFNRALNCMNLPPDKVQLLSQYDNEKKWELICDQERFQVKNPPAAYIQKLKSYVDTGGVSRKVAADWMSNLGFKRRVQESTQVLRELETSLRTNHIGWVQEFLNEENRGLDVLLEYLAFAQCSVTYDMESTDNGASNSEKNKPLEQSVEDLSKGPPSSVPKSRHLTIKLTPAHSRKALRNSRIVSQKDDVHVCIMCLRAIMNYQSGFSLVMNHPACVNEIALSLNNKNPRTKALVLELLAAVCLVRGGHDIILAAFDNFKEVCGEQHRFEKLMEYFRNEDSNIDFMVACMQFINIVVHSVENMNFRVFLQYEFTHLGLDLYLERLRLTESDKLQVQIQAYLDNIFDVGALLEDTETKNAVLEHMEELQEQVALLTERLRDAENESMAKIAELEKQLSQARKELETLRERFSESTAMGPSRRPPEPEKAPPAAPTRPSALELKVEELEEKGLIRILRGPGDAVSIEILPVAVATPSGGDAPTPGVPTGSPSPDLAPAAEPAPGAAPPPPPPLPGLPSPQEAPPSAPPQAPPLPGSPEPPPAPPLPGDLPPPPPPPPPPPGTDGPVPPPPPPPPPPPGGPPDALGRRDSELGPGVKAKKPIQTKFRMPLLNWVALKPSQITGTVFTELNDEKVLQELDMSDFEEQFKTKSQGPSLDLSALKSKAAQKAPSKATLIEANRAKNLAITLRKGNLGAERICQAIEAYDLQALGLDFLELLMRFLPTEYERSLITRFEREQRPMEELSEEDRFMLCFSRIPRLPERMTTLTFLGNFPDTAQLLMPQLNAIIAASMSIKSSDKLRQILEIVLAFGNYMNSSKRGAAYGFRLQSLDALLEMKSTDRKQTLLHYLVKVIAEKYPQLTGFHSDLHFLDKAGSVSLDSVLADVRSLQRGLELTQREFVRQDDCMVLKEFLRANSPTMDKLLADSKTAQEAFESVVEYFGENPKTTSPGLFFSLFSRFIKAYKKAEQEVEQWKKEAAAQEAGADTPGKGEPPAPKSPPKARRPQMDLISELKRRQQKEPLIYESDRDGAIEDIITVIKTVPFTARTGKRTSRLLCEASLGEEMPL
notes: also called full-length FMNL1; source: expressed from insect cells
Turning to B3, in series [5], the “stoichiometry N” value is 2.
